The DeepSol protein solubility set

Experiment: soluble on expression in E. coli; label from the status in PepcDB or PDB records

Sequence	soluble on expression in E. coli
MSLRHDFVFSGVIMLELNAKTTALVVIDLQEGILPFAGGPHTADEVVNRAGKLAAKFRASGQPVFLVRVGWSADYAEALKQPVDAPSPAKVLPENWWQHPAALGATDSDIEIIKRQWGAFYGTDLELQLRRRGIDTIVLCGISTNIGVESTARNAWELGFNLVIAEDACSAASAEQHNNSINHIYPRIARVRSVEEILNALEGGSHHHHHH	soluble
MSLRIIHICLWLLTGIFAEVSLSAQNPFIYHKGKTYKDVAAYRMEEIIDLNTHTPSTPILYEQQVPEHQSTLSYKVALPLYVRGIFFSRDSRPGDYQWPNNTNRLLPWMFNHLEDLTRSDYASIPSNALPSASGDALLLELADGEYLFAKAIAGSNSLSWFQVNQDGTLTLYVSTLGEDALTGRLPLLIFRKSSSVYHVFSDAYDSLIADKAVSALRKRADKQYFNAFDYLGWCTWEHYHYDIDETKILNDIDAIEASGIPVRYVLIDDGHIANKNRQLTSLVPDKKRFPNGWSRIMKRKQADKIRWIGLWYSLSGYWMGISAENDFPPEIRQVLHSYNGSLLPGTSTEKIETWYEYYVRTMKEYGFDFLKIDNQSFTLPLYMGGTQVIRQAKDCNLALEHQTHRMQMGLMNCMAQNVLNIDHTLYSSVTRASIDYKKYDENMAKSHLFQSYTNTLILGQTVWPDHDMFHSCDTVCGSLMARSKAISGGPVYLSDSPSEFIADNIRPLIDETGKIFRPAAPAIPTPESILTNPLQSGKAYREGHHHHHH	soluble
MSLRITGERIYLRPFQIIDANQKLAFHLANKAFFEGYSMERDDRFYTIEEQQSLISRLEDFAASDVEYYYGIFLNDTDELIGTINLFSILRESLQSAFIGYFLDKKHNGNGYATEAVQLIVDFGFDILGLHRIEAGVMPKNERSKQVLLKAGFHLEGLAVQNVRINGTWEDHQVLAIINPGDEGHHHHHH	soluble
MSLRKFMVLGYGEIGKLAIKHLLSHKVECIYLIVRDKSKASDLEGEIVEVLDFNEKNQVINEIDCIVSCTAAPHTVVRNEDIKTEGETIHIYDLAVPRDVDKELSEKERVILKDIDEISKIDDKNKKIRKERMEEYKHIVEESIDEFLNWLKIREVSSKIRNIKIRENEICSERIKTFSNKGNGENAKLAERMIKSTADAYVNRAIELLKSEALKGSDSYCAEIIEKIFLTEGHHHHHH	not soluble
MSLRKIKIKEIVCIIGLLGTLTAHSQNTVWQIGNKDKSAKEFKFYKNDYRNYINDVYLYEVGRNHSADFPYFLPGPSDAWAGGISGQAVIGFSLAEAPSPTTQIQLRLLFAETHPSSPPRLEVRLNSFEKSIQTPKGTNPEYLDTKETTSKELSVTLDIPADEFRAGNNTLTIRNISGSWVAFDQIKLTSDSPLQTNNLTTKASLVSSAFSPVLVVGKKKELRQPVKIKAVNWHHKKRPVELQVGNFPPERYVLSPGINNIETSIPEVTAPCELPIILKEQGKTVSKINEKATPVKKWTVYLVQHTHTDIGYTKPQTEILSEHLRYIDYAIEYCEQTKDYTNDAKFRWTCESAWAVDEYLKNRPEEQVNKLKKYIAEGQIEVASMYFNMSEIVDENSFKTFLQPVKEFRKHGIPSALAMQNDVNGIAWCLADYLPDLGIKYLWMGEHHYKSQVPFNMPTVFQWESPSGKPILTYRADHYNTGNFWGIEQGDIQKTEPKLLHYLSELERKHYPFDAVGVQYSGYFTDNSPPSIIECKLIREWNEKYAYPKLRSATASEFMDYVTERYGDKIPAYRAAYPDWWTDGFGSAARETAASRKTHSDMTAVEGLLSMAVLKDKCLPQATHQQIEHIHESLLFYDEHTFGASESVSDPLCENSQVQWGEKSAYAWEAVKRTQMLYETSVGLLQGDLRRGKNPTLTIFNTLNWKRSEMLTVYIDFEVIPRNQFFEITDFQGHSLKVQPIRYRREGCYYAIFAEDIPPMGYKTFEIVFKQPSTDTGTITINNASIENHFYKLQLNPDKGTIQSLYDKELNCELVDSSSPWELGAFIYEKLGNRDQLAQYRLDDYNRTGLSECRIIDSSNGPIYQRILLQGKSPGTDEAFGVNLEIKLYHDTKRIELEYAIKRLPETDPSGIYVAFPFQLPEGKLAFDVQGGTVISGKNQLEGTSTDWNTVQNFVSVQNEGHHHHHH	not soluble
MSLRKVIGIGETILDIIFRNDQPSAAVPGGSVFNGIVSLGRMGVNVCFISETGNDHVGNIILQFMRDNHIPTDHVNVFPDGKSPVSLAFLNEHSDAEYIFYKDYPKQRLDVLFPSINEDDIIVIGSYYALNPVLRDKILELLDIAKEKRAIVYYDPNFRSSHKNEAMKLAPTIIENLEYADIVRGSLEDFYYMYGIKDVEKIYKDKIKFYCPLFLCTAGAERISLRTNAISKEYPVAPLEAVSTIGAGDNFNAGLIYGMLKYDVRYRDLQHLSEETWDKVIQCGQDFAAEVCKSFNNSISGEFAANYREGHHHHHH	soluble
MSLRLEDIQAFLNVVELGSISAAAERMSLSKSVISKRVSDLERHLGVRLLYRSTRNVEPTEAGGFFYKSAKASLQDLNNAAESVALRENDLCGELRVMAPMSFGTLWLGPLVMEFMARNPRLEVVLQLDDRIVDFEKEGYDLAIRITRLQDSSLIARQLGTSRRVVCCSPEYLERHGPLQRIEDILCHPCIGYSHNTPSQLWSFEPRVAGEPARMITPRGRFNTNNGQTMRDAAVRGLGLAMLPLFIAAEDLAAGRLVEALPQERPLDDLIYAMYSRAATLSPKVKLFVQFLQQALGSPPWGVR	not soluble
MSLRLNDWQLAFEAYLLGEQAQARAVLQDSLIGGPTLDVETGLAIYHNAYMARLQEVMGSDFPAIRHWLGDAEFQALTQAYIRQCPSRHFSLRWLGQGFAEFILGHLVPEQGAPLAELARLEWAFTLAFDAADAQVLTVAAMAGLDVEQWPQLQLRLAPCVQWLDCRYNSVAQWRAVKEQADFPRSALLDQQQLCLVWRADRVCRYRSLPAEEATALRGMIEQRWNFAELCVGLAVTYAEGAPLQAVTWLKQWVEDGLVMRSESEGHHHHHH	not soluble
MSLRLTKGSVKHQAKTEAELKTVKTQLDTQKAQIEKHFAESAELFKTLINDYQKLYRHYATSSNNLLGEKDQKGLFTQQLITATDKSQNEQPRDYSEGASGLFKENKEEEGHHHHHH	soluble
MSLRRSLLLVDDDADHLAVLRCTLESCGFDVSLAPDGAAALALAHARAFDAVVLDIAMPGLSGWEVAERLRAAHGQSFRLVMLSANAEERHGPRGKEPDHDLFLMKPVELSALVDSLGKLLGLEWILSEGGGDTVLAQPRIDVSDSARTHVDRLKSLARIGHLRGLEAEIRSMQETDTGTAPLAARLFDCLDRCDLVAMRRVLEGIEGHHHHHH	not soluble
MSLRTKSWTDDLKVCNQTGVGEAINQIYKDDGRRCEGYESRDKKCLCISDNNTSLYAILSGHNGVTVAENALQEMAAELLLGQLNVCNTDEAVKELIRQSFMSVEKGYFDSINPHVATKTAIQLHLSADGMNQYEISQQFENVLQKLDSLNNALSVGSSAVLALIHRSHLYLGNIGNCRALLCKTDEHDTLTVTQLSVDHNLLNAEEAARLFRLGLMAQNFEGVPLYSTRCIGNYLGKAGYKDCNFLSSATAEPVIFEPEIVGGIQITPACRFLVLMSSGLCRALHEIFPGDASTGNRELVRMISEEFQNQSTLGGVAQSVVHRIVQAHHDTYMQLVEEHRSVTFNSRDDVTLLIRNFNYAEGHHHHHH	soluble
MSLRTTDIRVRDLYFEYEDFRYRTPIKFGGVALGRVTLLNVRMTVESAAGKAATGFGSMPLGNVWAYPSRLLTYDQTLGAMRFLASRIADGYRLCGLSGHPIDITHQLEPELLLAGNDFTAIHRPSDPVPKLAVLVVASAFDAALHDAYGKLHGLNCFRTYTREFLPDDLGHYLGAEFNGLHLDDFITHEPKPSMPLYHLVGALDPITPEDVTQPVGDGLPEHLAEWITRDGLTHLKIKLNGDDLGWDVERCVRINAVAEDAQRARGVTTWWYSLDFNERCQNVGYLIEFLQKLRERTPAGYDRVQYVEQPTARDLNAHPENKMHAAAKLKPVVIDESLLDLESLKLSMEMGYTGVAFKACKGQTQTLLLAAAAQKYGLFRCVQDLTCVGASLIHSAGLAAHIPGVAAIESNGRQYCPTANVAWDAKFPGVFTITGGSMNTALLNGVGLGAVSEGHHHHHH	soluble
